Experimental data as given in patent publication US20220112276A1 (Janssen / Centocor, published 2022).

Molecular target: T1, recombinant human pIgR (hpIgR) (human, UniProt P01833 19-638, limits assumed)
T1 construct: probably the ECD
Assay: ELISA, periplasmic VHH, BSA subtracted
Experimental: Initial Library Screening: After each panning round showing enrichment, 94 individual clones were expressed and tested in an off-phage initial screen for specific binding to mpIgR or hpIgR (respectively depending on the antigen used). Screening of monoclones in an off-phage format was performed by transforming the phagemid pool into a non-amber-suppressor strain of E. coli and picking random colonies. The VHH proteins were recovered in the periplasmic fraction by performing osmotic shock. Periplasmic fractions containing His-tagged nanobodies were tested for binding to hpIgR or mpIgR. Bound nanobody was detected with a polyclonal anti-alpaca VHH domain antibody. Each clone was also tested for non-specific binding to BSA in parallel. The ELISA values obtained on BSA were subtracted from the ELISA values obtained on the respective pIgR antigen.
Repeat Testing of Positive Hits: The hits identified in the initial screen of the phage pools were re-tested for binding to either hpIgR or mpIgR. Periplasmic fractions were prepared again by performing osmotic shock. Periplasmic fractions containing His-tagged nanobodies were tested for binding to mpIgR. In this assay, bound nanobody was detected with an anti-VHH antibody. Each clone was also tested for non-specific binding to BSA in parallel. The ELISA values obtained on BSA were subtracted from the ELISA values obtained on the respective pIgR antigen.

T1 sequence (P01833 19-638 limits assumed): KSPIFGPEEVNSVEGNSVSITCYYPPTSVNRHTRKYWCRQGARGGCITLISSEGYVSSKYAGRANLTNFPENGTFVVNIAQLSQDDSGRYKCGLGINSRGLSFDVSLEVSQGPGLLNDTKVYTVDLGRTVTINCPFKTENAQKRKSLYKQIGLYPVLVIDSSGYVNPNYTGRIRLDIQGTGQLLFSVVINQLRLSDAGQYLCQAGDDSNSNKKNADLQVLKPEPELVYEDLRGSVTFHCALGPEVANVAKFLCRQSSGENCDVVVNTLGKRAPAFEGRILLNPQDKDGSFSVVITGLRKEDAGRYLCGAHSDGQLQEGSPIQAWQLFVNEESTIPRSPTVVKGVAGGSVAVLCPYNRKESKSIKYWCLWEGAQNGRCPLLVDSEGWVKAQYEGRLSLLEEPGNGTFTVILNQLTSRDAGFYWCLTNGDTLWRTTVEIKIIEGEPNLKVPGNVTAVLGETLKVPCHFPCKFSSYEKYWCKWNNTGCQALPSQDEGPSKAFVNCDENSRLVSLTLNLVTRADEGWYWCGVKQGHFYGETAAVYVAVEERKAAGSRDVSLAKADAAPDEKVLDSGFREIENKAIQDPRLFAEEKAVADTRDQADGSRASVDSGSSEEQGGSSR

Row | Binder | ELISA (OD)
1 | 01B12R3LS His-tagged VHH (VHH) VHH: EVQLVESGGGLVQAGGSLRLSCAASGRTINGYVMGWFRQAPGKEREFVARIDWSGSSTDYADSVKGRFTISRDNAKTTVYLQMNSLKPEDTAVYYCAGSAYYSGYVTHRDFGSWGQGTQVTVSS | 2.17
2 | 01C05R3LS His-tagged VHH (VHH) VHH: EVQLVESGGGLVQAGGSLRLSCAASGRTINTYVMGWFRQAPGKEREFVARIDWSGSSTDYADSVKGRFTISRDNAKNTVYLQMNSLKPEDTAVYYCAGSAYYSGYVTHRDFGSWGQGTLVTVSS | 1.89
3 | 01D07R3LS His-tagged VHH (VHH) VHH: QVQLVESGGGLVQAGGSLRLSCAASGRTINTYVMGWFRQAPGKEREFVARIDWSGSSTDYADSVKGRFTISRDNAKNTVYLQMNSLKPEDTAVYYCAGSAYYSGYVTHRDFGSWGQGTLVTVSS | 2.07
4 | 01E09R3LS His-tagged VHH (VHH) VHH: EVQLVESGGGLVQAGGSLRLSCAASGRTINTYVMGWFRQAPGKEREFVARIDWSGSSTDYADSVKGRFTTSRDNAKNTVYLQMNGLKPEDTAVYYCAGSAYYSGYVTHRDFGSWGQGTLVTVSS | 1.97
5 | 01F03R3LS His-tagged VHH (VHH) VHH: EVQLVESGGGLVQAGGSLRLSCAASGRTINGYVMGWFRQAPGEEREFVARIDWSGSSTDYADSVKGRFTISRDNAKITVYLQMNSLKPEDTAVYYCAGSAYYSGYVTHRDFGSWGQGTLVTVSS | 2.35
6 | 01F11R2 His-tagged VHH (VHH) VHH: EVQLVESGGGLVQAGGSLRLSCAASGRTLNTYVMGWFRQAPGKEREFVARIDWSGSTTDYADSVKGRFTISRDNAKNTVYLQMNSLKPEDTAVYYCAGSAYYSGYVTHRDFGSWGQGTQVTVSS | 0.62
7 | 01G09R2 His-tagged VHH (VHH) VHH: EVQLVESGGGLVQAGGSLRLSCAASGRTINTYVMGWFRQAPGKEREFVARIDWSGSSTDYADSAKGRFTISRDNAKNTVYLQMNSLKPEDTAVYYCAGSAYYSGYVTHRDFGSWGQGTLVTVSS | 2
8 | 01G10R3LS His-tagged VHH (VHH) VHH: EVQLVESGGGLVQAGGSLRLSCAASGRTINTYVTGWFRQAPGKEREFVARIDWSGSSTDYADSVKGRFTISRDNAKNTVYLQMNSLKPEDTAVYYCAGSAYYSGYVTHRDFGSWGQGTQVTVSS | 1.96
9 | 01H11R3LS His-tagged VHH (VHH) VHH: QVQLVESGGGLVQAGGSLRLSCAASGRTINGYVMGWFRQAPGKEREFVARIDWSGSSTDYADSVKGRFTISRDNAKTTVYLQTNSLKPEDTAVYYCAGSAYYSGYVTHRDFGSWGQGTQVTVSS | 0.99
10 | 01B12R2 His-tagged VHH (VHH) VHH: EVQLVESGGGLVQAGGSLRLSCAASGRTFSSGIMGWFRQAPGKEREFVAAIEWSGGNTYKYYAESVKGRFAISRDNAKTTAYLQMGSLNPEDTALYYCAADESPSRYIDLRRPAPYHYWGQGTLVTVSS | 1.78
11 | 01C02R2 His-tagged VHH (VHH) VHH: EVQLVESGGGLVQAGGSLRLSCAASGRSYAMGWFRQAPGKEREFAAAISWSGSRTYYADAVKGRFTISRDNAKNTVYLQMNSLKPEDTAVYYCAADPDGTVVASSGWTNSYEYGYWGQGTLVTVSS | 2.26
12 | 01C02R3 His-tagged VHH (VHH) VHH: QVQLVESGGGLVQAGGSLRLSCAASGLSFSSYTMGWFRQVPGKERELISAIHWSGGPTFYSNSVKGRFTISRDNAKDTVYLQMNSLKPEDTAVYYCTAEPVGSMISPDWTYWGQGTLVTVSS | 1.8
13 | 01C03R2L His-tagged VHH (VHH) VHH: EVQLVESGGGLVQAGGSLRLSCAASGRTLRSYIVGWFRQAPGKEREFVAAVTWSDGRRVTADPVKGRFTISRDNAKNTVYLQMDSLKPEDAAVYYCAVSHGGAYVESRAYEYWGQGTQVTVSS | 2.37
14 | 01C03R3 His-tagged VHH (VHH) VHH: QVQLVESGGGLVQAGGSLRLSCAASGRTFSSYAMGWFRQAPGKEREFVAAIHWNGASTYRYSADSVKGRFTISRDNAKNTVYLQMNSLKPEDTAAYYCAASPPPTVGDVRDPANYDSWGQGTLVTVSS | 0.56
15 | 01C03R3LS His-tagged VHH (VHH) VHH: EVQLVESGGGLVQPGGSLRLSCVASGLPGSSSRMAWFAQAPGKEREFVAAIAWRGRTSYKYYSDSVKGRFTVSGDNAKRTLDLQMKDLNPEDTALYFCAAHPNDDGDPRISGNYQYWGQGTQVTVSS | 2.11
16 | 01G07R2L His-tagged VHH (VHH) VHH: QVQLVESGGGLVQPGGSLRLSCVASGLPFSSSRMAWFAQAPGKEREFVAAIGWRGRTSYKYYADSVKGRFTVSGDNAKKTLDLQMKDLKPEDTALYFCAAHPNDDGDPRISGNYQYWGQGTQVTVSS | 1.54
17 | 01A04R3LS His-tagged VHH (VHH) VHH: QVQLVESGGGSVQPGGSLRLSCAASGIDVSISTIMWYRQPPGRQRELVADVIPSGRSTTYTESVKGRFTVTRDNAKNTVYLQMSGLKPEDTAVYYCNAFVRRENYWGQGTQVTVSS | 2.15
18 | 01C11R2 His-tagged VHH (VHH) VHH: EVQLVESGGGLVQTGGSLRLSCAASGRTFSTYRMGWFRQAPGKEREFVAAISWSTGSTYYADSVKGRFAISRDNAKNTIYLQMNSLKPEDTAVYYCAAGMVATTRSSAYPYWGQGTQVTVSS | 1.3
19 | 01C12R2 His-tagged VHH (VHH) VHH: EVQLVESGGGLVQAGGSLRLSCAASGRTFGSYSMGWFRQAPGKEREFVGAISWSGSSTYKYYEDSVKGRFTISRDNAKNTVPLQMNSLKPEDTGVYFCGGTMERRDPRRTSAYDYWGQGTLVTVSS | 1.85
20 | 01D01R3 His-tagged VHH (VHH) VHH: EVQLVESGGGLVQAGGSLRLSCAASGRTFSVYGMGWFRQAPGQERAFVAAISWSDGSTYYADSVKGRFTISRDNAKNTMYLQMNSLKPEDTAVYFCAADLTGWGLDADVSEYDYWGQGTQVTVSS | 1.95
21 | 01E03R2 His-tagged VHH (VHH) VHH: EVQLVESGGGLVQAGGSLRLSCAASGRTFSVYGMGWFRQAPGQERAFVAAISWSDGSTYYADSVKGRFTISRDNAKNTMYLQMNSLKPEDTAVYFCAADLTGWGLDADVSEYDYWGQGTLVTVSS | 2.13
22 | 01G04R3 His-tagged VHH (VHH) VHH: QVQLVESGGGLVQAGGSLRLSCAASGRTFSVYGMGWFRQAPGQERAFVAAISWSDGSTYYADSVKGRFTISRDNAKNTMYLQMNSLKPEDTAVYFCAADLTGWGLDADVSEYDYWGQGTQVTVSS | 0.73
23 | 02B11R3 His-tagged VHH (VHH) VHH: EVQLVESGGGLVQAGGSLRLSCAASGRTFSPYGMGWFRQTPGKERAFVAAVDWNDGSTYYSDSVKGRFTISRDNAKNTVYLQMNSLKSEDTAVYYCAADLTGWGLDADVSEYDYWGQGTLVTVSS | 1.35
24 | 01D02R3LS His-tagged VHH (VHH) VHH: QVQLVESGGGLVQAGDSLTLSCAASGRSVGFDTYGMAWFRQAPGKEREFVASIAYNGETTSYADSVQGRFTVTRENAKNTIALRMNGLKPDDTAVYYCAAAQYYLTGTSFPAKFWGQGTLVTVSS | 2.45
25 | 01D04R3LS His-tagged VHH (VHH) VHH: EVQLVESGGGLVQAGGSLRLSCAASGRTFRSYAMGWFRQAPGKEREFVADISWRGGRLYYADSVKGRFTISRDNAKNTVYLQMNSLKPEDTAVYYCAATGDQPAFTTAQGMGAMLEYDYWGQGTLVTVSS | 2.06
26 | 01D09R3 His-tagged VHH (VHH) VHH: QVQLVESGGGLVQAGGSLRLSCAASGRTFSVYAMGWFRQAPGKERQFVAAITWSGGSTSYADSVKGRFTISRDNAKNTVYLQMNILKPEDTAVYYCAAATNPYFSDYYPDLKYEFDYWGQGTLVTVSS | 0.55
27 | 01E01R3LS His-tagged VHH (VHH) VHH: QVQLVESGGGLVQAGGSLRLSCAASGRSFSSYNMGWFRQAPGKERDLVAVVTWSGGGTSYADSVKGRFTIARDNANARLYLEMTSLKPEDTAIYYCAATQDWYGGTRAFRAASFHSWGQGTQVTVSS | 2.2
28 | 01H03R2L His-tagged VHH (VHH) VHH: EVQLVESGGGLVRAGGSLRLSCAASGRSFSSYNMGWFRQAPGKERDLVAVVTWSGGGTSYADSVKGRFTISRDNANARLYLEMTSLKPEDTAIYYCAATQDWYGGTRAFHAASFHSWGQGTLVTVSS | 2.18
29 | 01E02R3LS His-tagged VHH (VHH) VHH: EVQLVESGGGLVETGGSLRLSCAASGRTESTYTMAWFRQAPGKERERVATISFSGSTTTYLASVQGRFTISRDGAKNTIFLQMNGLKPEDTAVYYCALDTRRRVGSSPRFYDYWGQGTLVTVSS | 1.69
30 | 01E03R3 His-tagged VHH (VHH) VHH: QVQLVESGGGLVQTGGSLRLSCAASGRTFSVYRVGWFRQAPGKEREFVAAVIWSGASTYKYAADSVKGRFTISRDNAENTVYLQMNSLKPEDTAVYYCAADPLGLPGPDVRVEGGYRHWGQGTLVTVSS | 1.07
